Data published in the Human Domainome abundance scans (Beltran et al. 2025).

B1: Cytoplasmic polyadenylation element-binding protein 2, residues 513 to 575; numbered along this chain, Q7Z5Q1 (parent)
chain: KRVEVKPYVLDDQMCDECQGARCGGKFAPFFCANVTCLQYYCEFCWANIHSRAGREFHKPLVK
B2: POU domain, class 3, transcription factor 2, residues 356 to 411; numbered along this chain, P20265 (parent)
chain: KKRTSIEVSVKGALESHFLKCPKPSAQEITSLADSLQLEKEVVRVWFCNRRQKEKR

Variants of: B1
Assay: abundance fitness (aPCA) (normalised: wild type 0, dead -1); higher = more abundant; growth selection in yeast, the domain comes from the species named
Conditions: Homo sapiens

Abundance fitness, by site and new letter:
C18: N -0.748 | H -1.01 | Y -0.966
C23: G -0.056 | M -0.188
F31: Y 0.033 | L -0.328 | W -0.04 | V -0.622
H50: N -0.827 | T -0.742 | M -0.875 | P -0.81
N48: K 0.164 | I -0.02 | C -0.033
F27: A 0.068 | Q -0.045
E17: M -0.188 | C -0.006 | F -0.458 | D -0.136 | G -0.081 | S -0.051 | P -0.366
K59: I -0.3 | Q -0.076 | L -0.219 | H -0.226
K6: L -0.297 | S -0.085 | M -0.028
L61: Y -0.197 | I 0.071 | C 0.091
F30: Y 0.006
V3: K 0.112 | Y -0.37
E43: I -0.539 | A -0.3 | S 0.018 | T -0.149 | D -0.049
I49: A 0.017 | P -0.43 | V -0.01

Variants of: B2
Assay: as above
Conditions: Homo sapiens

Abundance fitness of substitutions, site by site:
E7: S 0.191 | V -0.21 | A -0.039 | G 0.077 | K -0.112 | I -0.116 | T 0.221 | D 0.066 | R -0.014 | L -0.177 | N 0.138 | M 0.032 | W -0.242 | Y -0.358 | C 0.014 | H 0.028
K1: T -0.206 | R -0.302 | L -0.498 | A -0.237 | M -0.244 | N -0.012 | S -0.273 | I -0.397 | Y -0.382 | G -0.214 | V -0.072 | D 0.082
V8: A 0.202 | D -0.064 | F 0.065 | E 0.093 | C -0.327 | G 0.091
K2: Y -0.06 | G -0.087 | W -0.246 | H -0.335 | Q -0.068 | A -0.154 | M -0.072 | V -0.119 | L -0.222 | I -0.207 | E -0.07 | R -0.166 | N -0.339 | T -0.21 | P -0.525 | C -0.395 | S -0.18 | D 0.028 | F -0.199
T4: M -0.015 | V -0.095 | N -0.032 | R -0.356 | P -0.101 | E 0.17 | Q -0.107 | G -0.198 | S -0.029 | D 0.023 | F 0.126 | H -0.363 | Y -0.209 | I 0.053 | W -0.546 | C -0.287 | K -0.267 | L -0.199
R3: W -0.273 | L 0.01 | Y 0.026 | S 0.023 | G 0.092 | F -0.021 | V 0.051 | K 0.054 | T -0.009 | H 0.002 | N 0.13 | P -0.134 | M 0.031 | A -0.168 | C 0.246 | I 0.045
I6: H -0.247 | P -0.213 | W -0.289 | D -0.072 | Q -0.226 | C -0.172 | E -0.091 | T -0.111 | M -0.049 | F -0.438 | Y -0.239 | R -0.117 | S -0.053 | G -0.119 | K 0.103 | L 0.045 | A -0.069
S5: G 0.024 | T 0.173 | D -0.174 | P 0.007 | V 0.229 | Q 0.095 | C 0.033 | W -0.313 | K 0.14 | R -0.105 | F -0.053 | Y -0.183 | A -0.001 | I 0.118 | M -0.018 | H 0.095 | L 0.002
